Paper PMC9569990 (International Journal of Molecular Sciences, 2022)

Assays:
Assay in all cases: SPR; cytokine immobilised on ProteOn GLH sensor chip by amine coupling (9,000-14,000 RU); S100P (wild type or mutant) as analyte, 62 nM-16 µM; 25 °C; 10 mM HEPES, 150 mM NaCl, 1 mM CaCl2, 0.05% TWEEN 20, pH 7.4; heterogeneous ligand model (two ligand populations), one-site model for IL-13; values averaged over analyte concentrations (n = 3-5)
Settings in all cases: both partners purified
Somatotropin = target: T1, Somatotropin (human, UniProt P01241 27-217)
T1 construct: Somatotropin (growth hormone), human, UniProt P01241; see the manufacturer's catalogue number; also called GH; growth hormone; source: bought: PeproTech (source E. coli)
T1 sequence (P01241 27-217): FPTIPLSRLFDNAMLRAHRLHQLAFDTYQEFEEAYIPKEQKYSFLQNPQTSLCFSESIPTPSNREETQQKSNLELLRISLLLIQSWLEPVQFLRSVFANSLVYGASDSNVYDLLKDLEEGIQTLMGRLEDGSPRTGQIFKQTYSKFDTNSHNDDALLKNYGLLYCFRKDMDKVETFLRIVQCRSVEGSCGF

Interleukin-3 = target: T2, Interleukin-3 (human, UniProt P08700 20-152)
T2 construct: Interleukin-3, human, UniProt P08700; see the manufacturer's catalogue number; also called IL-3; source: bought: SCI-Store (Russia) (source CHO)
T2 sequence (looked up): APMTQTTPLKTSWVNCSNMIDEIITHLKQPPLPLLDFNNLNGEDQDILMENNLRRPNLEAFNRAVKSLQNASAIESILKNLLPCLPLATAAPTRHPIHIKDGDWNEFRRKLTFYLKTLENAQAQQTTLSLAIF

Interleukin-27 = target: T3, Interleukin-27 (human, UniProt Q8NEV9 29-243; Q14213 21-229)
T3 construct: the chain used for the SCOP family assignment; also called IL-27; source: bought: PeproTech (source HEK293)
T3 sequence (looked up) 1: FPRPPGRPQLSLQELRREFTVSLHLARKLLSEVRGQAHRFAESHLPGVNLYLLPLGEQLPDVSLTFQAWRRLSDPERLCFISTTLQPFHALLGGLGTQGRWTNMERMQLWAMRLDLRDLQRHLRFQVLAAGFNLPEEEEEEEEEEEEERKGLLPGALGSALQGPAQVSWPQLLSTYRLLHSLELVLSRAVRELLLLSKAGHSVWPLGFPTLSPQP
T3 sequence (looked up) 2: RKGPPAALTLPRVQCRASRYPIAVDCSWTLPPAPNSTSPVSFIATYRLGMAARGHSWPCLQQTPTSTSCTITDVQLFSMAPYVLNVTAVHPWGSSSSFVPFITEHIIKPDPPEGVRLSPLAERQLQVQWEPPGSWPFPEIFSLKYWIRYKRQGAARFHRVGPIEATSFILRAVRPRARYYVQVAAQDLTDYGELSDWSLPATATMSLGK

Interleukin-22 = target: T4, Interleukin-22 (human, UniProt Q9GZX6 34-179)
T4 construct: Interleukin-22, human, UniProt Q9GZX6; see the manufacturer's catalogue number; also called IL-22; source: bought: PeproTech (source E. coli)
T4 sequence (looked up): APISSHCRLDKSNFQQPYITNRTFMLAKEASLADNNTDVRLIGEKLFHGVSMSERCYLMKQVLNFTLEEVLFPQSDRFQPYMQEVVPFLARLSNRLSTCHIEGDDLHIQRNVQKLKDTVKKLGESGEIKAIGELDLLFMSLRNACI

Interleukin-31 = target: T5, Interleukin-31 (human, UniProt Q6EBC2 24-164)
T5 construct: Interleukin-31, human, UniProt Q6EBC2; see the manufacturer's catalogue number; also called IL-31; source: bought: PeproTech (source E. coli)
T5 sequence (looked up): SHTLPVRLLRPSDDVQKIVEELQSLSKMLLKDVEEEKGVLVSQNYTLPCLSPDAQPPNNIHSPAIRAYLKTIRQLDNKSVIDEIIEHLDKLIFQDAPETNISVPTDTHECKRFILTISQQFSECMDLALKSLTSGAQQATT

Interleukin-24 = target: T6, Interleukin-24 (human, UniProt Q13007 52-206)
T6 construct: Interleukin-24, human, UniProt Q13007; see the manufacturer's catalogue number; also called IL-24; source: bought: PeproTech (source CHO)
T6 sequence (looked up): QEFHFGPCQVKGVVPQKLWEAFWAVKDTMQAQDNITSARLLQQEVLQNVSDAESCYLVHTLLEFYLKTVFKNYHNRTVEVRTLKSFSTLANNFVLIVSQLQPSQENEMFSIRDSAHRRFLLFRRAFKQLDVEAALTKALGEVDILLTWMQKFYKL

B1: Human S100P protein (recombinant, Ca^2+-loaded) (natural protein)
chain: MTELETAMGMIIDVFSRYSGSEGSTQTLTKGELKVLMEKELPGFLQSGKDKDAVDKLLKDLDANGDAQVDFSEFIVFVAAITSACHKYFEKAGLK
notes: S100P protein, human, recombinant; probably the whole 95-residue protein (surmise); also called wild-type S100P; WT S100P; source: E. coli, prepared as previously described [28]
Kd1 (heterogeneous ligand model, population 1) (Somatotropin): 42.9 nM | Kd2 (heterogeneous ligand model, population 2) (Somatotropin): 266 nM | kd1 (heterogeneous ligand model, population 1) (Somatotropin): 0.000669 s⁻¹ | kd2 (heterogeneous ligand model, population 2) (Somatotropin): 0.0142 s⁻¹ | Kd1 (heterogeneous ligand model, population 1) (Interleukin-3): 23.2 nM | Kd2 (heterogeneous ligand model, population 2) (Interleukin-3): 579 nM | kd1 (heterogeneous ligand model, population 1) (Interleukin-3): 0.000627 s⁻¹ | kd2 (heterogeneous ligand model, population 2) (Interleukin-3): 0.00529 s⁻¹ | Kd1 (heterogeneous ligand model, population 1) (Interleukin-27): 859 nM | Kd2 (heterogeneous ligand model, population 2) (Interleukin-27): 1.69 µM | kd1 (heterogeneous ligand model, population 1) (Interleukin-27): 0.00994 s⁻¹ | kd2 (heterogeneous ligand model, population 2) (Interleukin-27): 0.000357 s⁻¹ | Kd1 (heterogeneous ligand model, population 1) (Interleukin-22): 482 nM | Kd2 (heterogeneous ligand model, population 2) (Interleukin-22): 780 nM | kd1 (heterogeneous ligand model, population 1) (Interleukin-22): 0.00764 s⁻¹ | kd2 (heterogeneous ligand model, population 2) (Interleukin-22): 0.00276 s⁻¹ | Kd1 (heterogeneous ligand model, population 1) (Interleukin-31): 25.2 nM | Kd2 (heterogeneous ligand model, population 2) (Interleukin-31): 202 nM | kd1 (heterogeneous ligand model, population 1) (Interleukin-31): 0.00023 s⁻¹ | kd2 (heterogeneous ligand model, population 2) (Interleukin-31): 0.0583 s⁻¹ | Kd1 (heterogeneous ligand model, population 1) (Interleukin-24): 158 nM | Kd2 (heterogeneous ligand model, population 2) (Interleukin-24): 918 nM | kd1 (heterogeneous ligand model, population 1) (Interleukin-24): 0.000483 s⁻¹ | kd2 (heterogeneous ligand model, population 2) (Interleukin-24): 0.00794 s⁻¹
